Measurements taken from patent US20140087995A1 (published 2014).
Numbering of substitutions follows the chain as printed. Numbered stars: 1 amine (or outer) side, 2 acyl side, 3 side chain; on linkers, the order of the positions; unused ones are H or OH. Bridge positions count the residues as written; N and C are the ends. Side chains are listed from the residue outwards. Ends that are not written are not given here. * marks the point of attachment. C20 diacid = O=C(O)CCCCCCCCCCCCCCCCCCC(=O)*; γGlu = O=C(O)[C@H](CCC(=O)[*:2])N[*:1]; AEEA = NCCOCCOCC(=O)O

T1: human calcitonin receptor (human, UniProt P30988 25-474)
T1 construct: whole, on cells; also called hCTR; hCT
T1 sequence (looked up): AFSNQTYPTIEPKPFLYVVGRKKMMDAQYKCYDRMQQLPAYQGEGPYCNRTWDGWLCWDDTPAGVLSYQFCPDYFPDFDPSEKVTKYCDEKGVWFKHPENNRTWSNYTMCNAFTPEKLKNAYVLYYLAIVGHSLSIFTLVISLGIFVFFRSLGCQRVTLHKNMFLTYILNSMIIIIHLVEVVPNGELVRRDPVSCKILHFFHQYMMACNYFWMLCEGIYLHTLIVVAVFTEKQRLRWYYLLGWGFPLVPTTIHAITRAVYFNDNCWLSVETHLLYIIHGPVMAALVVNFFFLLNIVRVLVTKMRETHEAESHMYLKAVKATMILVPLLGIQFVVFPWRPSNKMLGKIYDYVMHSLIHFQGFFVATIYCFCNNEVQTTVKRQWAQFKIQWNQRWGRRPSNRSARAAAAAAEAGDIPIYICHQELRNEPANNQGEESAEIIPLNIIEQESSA

T2: human calcitonin receptor (human, UniProt P30988 25-474)
T2 construct: whole, on cells; also called hCTR; hCT
T2 sequence (looked up): T1 sequence (looked up)

B1: N^α1-[(4S)-4-carboxy-4-(19-carboxynonadecanoylamino)butanoyl]-[Glu14,Arg17,Pro21,Pro27]-h-amylin (peptide)
peptide: KCNTATCATQRLAEFLRHSSPNFGAIPSSTNVGSNTY
modifications: C20 diacid-gGlu on the alpha amino group of the N-terminal residue; disulfide bridge Cys2-Cys7; C-terminal amide
notes: also called compound 9
B2: N^α1-[(4S)-4-carboxy-4-(19-carboxynonadecanoylamino)butanoyl]-[Arg17,Pro21,Pro27,Pro31,Glu35]-h-amylin (peptide)
peptide: {C20 diacid-γGlu}-KCNTATCATQRLANFLRHSSPNFGAIPSSTPVGSETY-NH2
modifications: disulfide 2-7
SMILES: CC[C@H](C)[C@H](NC(=O)[C@H](C)NC(=O)CNC(=O)[C@H](Cc1ccccc1)NC(=O)[C@H](CC(N)=O)NC(=O)[C@@H]1CCCN1C(=O)[C@H](CO)NC(=O)[C@H](CO)NC(=O)[C@H](Cc1c[nH]cn1)NC(=O)[C@H](CCCNC(=N)N)NC(=O)[C@H](CC(C)C)NC(=O)[C@H](Cc1ccccc1)NC(=O)[C@H](CC(N)=O)NC(=O)[C@H](C)NC(=O)[C@H](CC(C)C)NC(=O)[C@H](CCCNC(=N)N)NC(=O)[C@H](CCC(N)=O)NC(=O)[C@@H](NC(=O)[C@H](C)NC(=O)[C@@H]1CSSC[C@H](NC(=O)[C@H](CCCCN)NC(=O)CC[C@H](NC(=O)CCCCCCCCCCCCCCCCCCC(=O)O)C(=O)O)C(=O)N[C@@H](CC(N)=O)C(=O)N[C@@H]([C@@H](C)O)C(=O)N[C@@H](C)C(=O)N[C@@H]([C@@H](C)O)C(=O)N1)[C@@H](C)O)C(=O)N1CCC[C@H]1C(=O)N[C@@H](CO)C(=O)N[C@@H](CO)C(=O)N[C@H](C(=O)N1CCC[C@H]1C(=O)N[C@H](C(=O)NCC(=O)N[C@@H](CO)C(=O)N[C@@H](CCC(=O)O)C(=O)N[C@H](C(=O)N[C@@H](Cc1ccc(O)cc1)C(N)=O)[C@@H](C)O)C(C)C)[C@@H](C)O
notes: also called compound 28
B3: N^α1-[(4S)-4-carboxy-4-(19-carboxynonadecanoylamino)butanoyl]-[Arg17,Pro21,Pro27,Glu35]-h-amylin (peptide)
peptide: B1 peptide with E14N, N35E
modifications: C20 diacid-gGlu on the alpha amino group of the N-terminal residue; disulfide bridge Cys2-Cys7; C-terminal amide
notes: also called compound 23
B4: N^α1-[(4S)-4-carboxy-4-(19-carboxynonadecanoylamino)butanoyl]-[Arg17,Pro21,Pro27,Arg34]-h-amylin (peptide)
peptide: B1 peptide with E14N, S34R
modifications: C20 diacid-gGlu on the alpha amino group of the N-terminal residue; disulfide bridge Cys2-Cys7; C-terminal amide
notes: also called compound 39
B5: N^α1-[2-[2-[2-[[2-[2-[2-[[(4S)-4-carboxy-4-(19-carboxynonadecanoylamino)butanoyl]amino]ethoxy]ethoxy]acetyl]amino]ethoxy]ethoxy]acetyl]-[Glu14,Arg17,Pro21,Pro27 … (peptide)
peptide: {C20 diacid-γGlu-AEEA-AEEA}-KCNTATCATQRLAEFLRHSSPNFGAIPSSTNVGSNTP-NH2
modifications: disulfide 2-7
SMILES: CC[C@H](C)[C@H](NC(=O)[C@H](C)NC(=O)CNC(=O)[C@H](Cc1ccccc1)NC(=O)[C@H](CC(N)=O)NC(=O)[C@@H]1CCCN1C(=O)[C@H](CO)NC(=O)[C@H](CO)NC(=O)[C@H](Cc1c[nH]cn1)NC(=O)[C@H](CCCNC(=N)N)NC(=O)[C@H](CC(C)C)NC(=O)[C@H](Cc1ccccc1)NC(=O)[C@H](CCC(=O)O)NC(=O)[C@H](C)NC(=O)[C@H](CC(C)C)NC(=O)[C@H](CCCNC(=N)N)NC(=O)[C@H](CCC(N)=O)NC(=O)[C@@H](NC(=O)[C@H](C)NC(=O)[C@@H]1CSSC[C@H](NC(=O)[C@H](CCCCN)NC(=O)COCCOCCNC(=O)COCCOCCNC(=O)CC[C@H](NC(=O)CCCCCCCCCCCCCCCCCCC(=O)O)C(=O)O)C(=O)N[C@@H](CC(N)=O)C(=O)N[C@@H]([C@@H](C)O)C(=O)N[C@@H](C)C(=O)N[C@@H]([C@@H](C)O)C(=O)N1)[C@@H](C)O)C(=O)N1CCC[C@H]1C(=O)N[C@@H](CO)C(=O)N[C@@H](CO)C(=O)N[C@H](C(=O)N[C@@H](CC(N)=O)C(=O)N[C@H](C(=O)NCC(=O)N[C@@H](CO)C(=O)N[C@@H](CC(N)=O)C(=O)N[C@H](C(=O)N1CCC[C@H]1C(N)=O)[C@@H](C)O)C(C)C)[C@@H](C)O
notes: also called compound 20
B6: N^α1-[(4S)-4-carboxy-4-(19-carboxynonadecanoylamino)butanoyl]-[Arg17,Pro21,Pro27,His34]-h-amylin (peptide)
peptide: B1 peptide with E14N, S34H
modifications: C20 diacid-gGlu on the alpha amino group of the N-terminal residue; disulfide bridge Cys2-Cys7; C-terminal amide
notes: also called compound 40
B7: N^α1-[(4S)-4-carboxy-4-(19-carboxynonadecanoylamino)butanoyl]-[Asp14,Arg17,Pro21,Pro27,Pro37]-h-amylin (peptide)
peptide: {C20 diacid-γGlu}-KCNTATCATQRLADFLRHSSPNFGAIPSSTNVGSNTP-NH2
modifications: disulfide 2-7
SMILES: CC[C@H](C)[C@H](NC(=O)[C@H](C)NC(=O)CNC(=O)[C@H](Cc1ccccc1)NC(=O)[C@H](CC(N)=O)NC(=O)[C@@H]1CCCN1C(=O)[C@H](CO)NC(=O)[C@H](CO)NC(=O)[C@H](Cc1c[nH]cn1)NC(=O)[C@H](CCCNC(=N)N)NC(=O)[C@H](CC(C)C)NC(=O)[C@H](Cc1ccccc1)NC(=O)[C@H](CC(=O)O)NC(=O)[C@H](C)NC(=O)[C@H](CC(C)C)NC(=O)[C@H](CCCNC(=N)N)NC(=O)[C@H](CCC(N)=O)NC(=O)[C@@H](NC(=O)[C@H](C)NC(=O)[C@@H]1CSSC[C@H](NC(=O)[C@H](CCCCN)NC(=O)CC[C@H](NC(=O)CCCCCCCCCCCCCCCCCCC(=O)O)C(=O)O)C(=O)N[C@@H](CC(N)=O)C(=O)N[C@@H]([C@@H](C)O)C(=O)N[C@@H](C)C(=O)N[C@@H]([C@@H](C)O)C(=O)N1)[C@@H](C)O)C(=O)N1CCC[C@H]1C(=O)N[C@@H](CO)C(=O)N[C@@H](CO)C(=O)N[C@H](C(=O)N[C@@H](CC(N)=O)C(=O)N[C@H](C(=O)NCC(=O)N[C@@H](CO)C(=O)N[C@@H](CC(N)=O)C(=O)N[C@H](C(=O)N1CCC[C@H]1C(N)=O)[C@@H](C)O)C(C)C)[C@@H](C)O
notes: also called compound 10
B8: N^ε1-[(4S)-4-carboxy-4-(19-carboxynonadecanoylamino)butanoyl]-[Arg17,Pro21,Pro27]-h-amylin (peptide)
peptide: K([γGlu-C20 diacid])CNTATCATQRLANFLRHSSPNFGAIPSSTNVGSNTY-NH2
modifications: disulfide 2-7; N-terminus assumed
SMILES: CC[C@H](C)[C@H](NC(=O)[C@H](C)NC(=O)CNC(=O)[C@H](Cc1ccccc1)NC(=O)[C@H](CC(N)=O)NC(=O)[C@@H]1CCCN1C(=O)[C@H](CO)NC(=O)[C@H](CO)NC(=O)[C@H](Cc1c[nH]cn1)NC(=O)[C@H](CCCNC(=N)N)NC(=O)[C@H](CC(C)C)NC(=O)[C@H](Cc1ccccc1)NC(=O)[C@H](CC(N)=O)NC(=O)[C@H](C)NC(=O)[C@H](CC(C)C)NC(=O)[C@H](CCCNC(=N)N)NC(=O)[C@H](CCC(N)=O)NC(=O)[C@@H](NC(=O)[C@H](C)NC(=O)[C@@H]1CSSC[C@H](NC(=O)[C@@H](N)CCCCNC(=O)CC[C@H](NC(=O)CCCCCCCCCCCCCCCCCCC(=O)O)C(=O)O)C(=O)N[C@@H](CC(N)=O)C(=O)N[C@@H]([C@@H](C)O)C(=O)N[C@@H](C)C(=O)N[C@@H]([C@@H](C)O)C(=O)N1)[C@@H](C)O)C(=O)N1CCC[C@H]1C(=O)N[C@@H](CO)C(=O)N[C@@H](CO)C(=O)N[C@H](C(=O)N[C@@H](CC(N)=O)C(=O)N[C@H](C(=O)NCC(=O)N[C@@H](CO)C(=O)N[C@@H](CC(N)=O)C(=O)N[C@H](C(=O)N[C@@H](Cc1ccc(O)cc1)C(N)=O)[C@@H](C)O)C(C)C)[C@@H](C)O
notes: also called compound 48

What follows are binders tested against T1, human calcitonin receptor (assay: ratio of IC50 at hCTR to IC50 at the human amylin receptor (reference)).
Experimental: The resulting pellet was resuspended, homogenized and centrifuged (20.000 rpm, 15 min) in a buffer containing 20 mM Na-HEPES and 0.1 mM EDTA (pH 7.4, buffer 2). The resulting pellet was resuspended in buffer 2 and protein concentration was measured (BCA protein Assay, Pierce). The homogenate was kept cold during the whole procedure. The membranes were kept at −80° C. until use. The assay was performed in a 384 well Optiplate (PerkinElmer) in a total volume of 40 ul. Membranes were mixed with SPA beads. Final concentration of membranes 35 ng/μL final and SPA beads was 0.05 mg/well. Test-compounds were dissolved in DMSO and further diluted in assay buffer (50 mM Hepes, pH 7.4, 1 mM CaCl2, 5 mM MgCl₂, 0.1% OA and 0.02% Tween20). […] The final mixture was incubated with shaking at 400 rpm for 120 min at 25° C. prior to centrifugation (1500 rpm, 10 min). Samples were analyzed on TopCounter™ (Packard). The IC₅₀ was calculated using (one site binding competition analysis) GraphPad Prism5 as a measure of receptor affinity.
Membranes were prepared in the following way; the cells were rinsed with PBS and incubated with Versene for approximately 5 min before harvesting. The cells were flushed with PBS and the cell-suspension was centrifuged for 5 min at 1000 rpm. Cells were homogenized (Ultrathurrax) in a buffer containing 20 mM Na-HEPES and 10 mM EDTA (pH 7.4) and centrifuged at 20.000 rpm for 15 min. The resulting pellet was resuspended, homogenized and centrifuged (20.000 rpm, 15 min) in a buffer containing 20 mM Na-HEPES and 0.1 mM EDTA (pH 7.4, buffer 2). The resulting pellet was resuspended in buffer 2 and protein concentration was measured (BCA protein Assay, Pierce). The homogenate was kept cold during the whole procedure. The membranes were kept at −80° C. until use. Assay was performed in a 384 well Optiplate (PerkinElmer) in a total volume of 40 ul. Membranes were mixed with SPA beads.

Row | Binder | Ratio hCT/hAmylin binding
1 | B1 | 8
2 | B2 | 20.5
3 | B3 | 25
4 | B4 | 29
5 | B5 | 3.6
6 | B6 | 31.1
7 | B7 | 1.2

Each binder was assayed against T2, human calcitonin receptor (assay: SPA competition with 125I-calcitonin, membranes of BHK hCTR cells (Assay VII)).
How it was run: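 BHK hCTR membranes 35 ng/μL + SPA beads 0.05 mg/well; buffer 50 mM Hepes pH 7.4, 1 mM CaCl2, 5 mM MgCl₂, 0.1% OA, 0.02% Tween20. 120 min, 25° C., shaking. Scintillation count; IC50 by one-site binding competition.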

Row | Binder | IC50 [nM]
8 | B8 | 30.9

What follows are binders tested against T1, human calcitonin receptor (assay: SPA competition binding, membranes with human calcitonin receptor, displacement of 125I-calcitonin (Assay VII)).
Experimental: Membranes were prepared in the following way; the cells were rinsed with PBS and incubated with Versene for approximately 5 min before harvesting. The cells were flushed with PBS and the cell-suspension was centrifuged for 5 min at 1000 rpm. Cells were homogenized (Ultrathurrax) in a buffer containing 20 mM Na-HEPES and 10 mM EDTA (pH 7.4) and centrifuged at 20.000 rpm for 15 min. The resulting pellet was resuspended, homogenized and centrifuged (20.000 rpm, 15 min) in a buffer containing 20 mM Na-HEPES and 0.1 mM EDTA (pH 7.4, buffer 2). The resulting pellet was resuspended in buffer 2 and protein concentration was measured (BCA protein Assay, Pierce). The homogenate was kept cold during the whole procedure. The membranes were kept at −80° C. until use. Assay was performed in a 384 well Optiplate (PerkinElmer) in a total volume of 40 ul. Membranes were mixed with SPA beads. Final concentration of membranes 35 ng/μL final and Final concentration of SPA beads was 0.05 mg/well. Test-compounds were dissolved in DMSO and further diluted in assay buffer (50 mM Hepes, pH 7.4, 1 mM CaCl2, 5 mM MgCl₂, 0.1% OA and 0.02% Tween20). […] The final mixture was incubated for 120 min with shaking at 400 rpm at 25° C. prior to centrifugation (1500 rpm, 10 min). Samples were analyzed on TopCounter™ (Packard). The […] was calculated using (one site binding competition analysis) GraphPad Prism5 as a measure of receptor affinity.

Row | Binder | IC50 [nM]
9 | B1 | 1.14
10 | B2 | 12.5
11 | B3 | 21.8
12 | B4 | 19.3
13 | B5 | 0.787
14 | B6 | 17.1
15 | B7 | 0.099
